Data from the Human Domainome abundance scans (Beltran et al. 2025).
± gives the uncertainty stated by the source.

B1: Mineralocorticoid receptor, residues 600 to 675; numbered along this chain, P08235 (parent)
chain: SKICLVCGDEASGCHYGVVTCGSCKVFFKRAVEGQHNYLCAGRNDCIIDKIRRKNCPACRLQKCLQAGMNLGARKS

Variants of: B1
Experiment: abundance fitness (aPCA) (normalised: wild type 0, dead -1); higher = more abundant; growth selection in yeast, the domain comes from the species named
Settings: Homo sapiens

IKICLVCGDEASGCHYGVVTCGSCKVFFKRAVEGQHNYLCAGRNDCIIDKIRRKNCPACRLQKCLQAGMNLGARKS [S1I] and HKICLVCGDEASGCHYGVVTCGSCKVFFKRAVEGQHNYLCAGRNDCIIDKIRRKNCPACRLQKCLQAGMNLGARKS [S1H] are within error of each other in abundance fitness: -0.035 ± 0.11 for the first, 0.002 ± 0.26 for the second.

LKICLVCGDEASGCHYGVVTCGSCKVFFKRAVEGQHNYLCAGRNDCIIDKIRRKNCPACRLQKCLQAGMNLGARKS [S1L] and YKICLVCGDEASGCHYGVVTCGSCKVFFKRAVEGQHNYLCAGRNDCIIDKIRRKNCPACRLQKCLQAGMNLGARKS [S1Y] are within error of each other in abundance fitness: -0.099 ± 0.062 for the first, 0 ± 0.089 for the second.

WKICLVCGDEASGCHYGVVTCGSCKVFFKRAVEGQHNYLCAGRNDCIIDKIRRKNCPACRLQKCLQAGMNLGARKS [S1W] and KKICLVCGDEASGCHYGVVTCGSCKVFFKRAVEGQHNYLCAGRNDCIIDKIRRKNCPACRLQKCLQAGMNLGARKS [S1K] are within error of each other in abundance fitness: -0.144 ± 0.073 for the first, -0.123 ± 0.1 for the second.

MKICLVCGDEASGCHYGVVTCGSCKVFFKRAVEGQHNYLCAGRNDCIIDKIRRKNCPACRLQKCLQAGMNLGARKS [S1M] and PKICLVCGDEASGCHYGVVTCGSCKVFFKRAVEGQHNYLCAGRNDCIIDKIRRKNCPACRLQKCLQAGMNLGARKS [S1P] are within error of each other in abundance fitness: -0.06 ± 0.074 for the first, -0.13 ± 0.09 for the second.

Compared with VKICLVCGDEASGCHYGVVTCGSCKVFFKRAVEGQHNYLCAGRNDCIIDKIRRKNCPACRLQKCLQAGMNLGARKS [S1V], RKICLVCGDEASGCHYGVVTCGSCKVFFKRAVEGQHNYLCAGRNDCIIDKIRRKNCPACRLQKCLQAGMNLGARKS [S1R] is lower in abundance fitness: 0.018 ± 0.056 for the first, -0.099 ± 0.052 for the second.

SKIELVCGDEASGCHYGVVTCGSCKVFFKRAVEGQHNYLCAGRNDCIIDKIRRKNCPACRLQKCLQAGMNLGARKS [C4E] and SKIFLVCGDEASGCHYGVVTCGSCKVFFKRAVEGQHNYLCAGRNDCIIDKIRRKNCPACRLQKCLQAGMNLGARKS [C4F] are within error of each other in abundance fitness: -0.727 ± 0.11 for the first, -0.753 ± 0.26 for the second.

SKISLVCGDEASGCHYGVVTCGSCKVFFKRAVEGQHNYLCAGRNDCIIDKIRRKNCPACRLQKCLQAGMNLGARKS [C4S] and SKILLVCGDEASGCHYGVVTCGSCKVFFKRAVEGQHNYLCAGRNDCIIDKIRRKNCPACRLQKCLQAGMNLGARKS [C4L] are within error of each other in abundance fitness: -0.851 ± 0.14 for the first, -0.768 ± 0.1 for the second.

SKIKLVCGDEASGCHYGVVTCGSCKVFFKRAVEGQHNYLCAGRNDCIIDKIRRKNCPACRLQKCLQAGMNLGARKS [C4K] and SKIMLVCGDEASGCHYGVVTCGSCKVFFKRAVEGQHNYLCAGRNDCIIDKIRRKNCPACRLQKCLQAGMNLGARKS [C4M] are within error of each other in abundance fitness: -0.87 ± 0.23 for the first, -0.96 ± 0.19 for the second.

SKIHLVCGDEASGCHYGVVTCGSCKVFFKRAVEGQHNYLCAGRNDCIIDKIRRKNCPACRLQKCLQAGMNLGARKS [C4H] and SKIDLVCGDEASGCHYGVVTCGSCKVFFKRAVEGQHNYLCAGRNDCIIDKIRRKNCPACRLQKCLQAGMNLGARKS [C4D] are within error of each other in abundance fitness: -0.77 ± 0.21 for the first, -0.549 ± 0.15 for the second.

SKIPLVCGDEASGCHYGVVTCGSCKVFFKRAVEGQHNYLCAGRNDCIIDKIRRKNCPACRLQKCLQAGMNLGARKS [C4P] and SKIVLVCGDEASGCHYGVVTCGSCKVFFKRAVEGQHNYLCAGRNDCIIDKIRRKNCPACRLQKCLQAGMNLGARKS [C4V] are within error of each other in abundance fitness: -0.986 ± 0.27 for the first, -0.989 ± 0.24 for the second.

SKIYLVCGDEASGCHYGVVTCGSCKVFFKRAVEGQHNYLCAGRNDCIIDKIRRKNCPACRLQKCLQAGMNLGARKS [C4Y] and SKIILVCGDEASGCHYGVVTCGSCKVFFKRAVEGQHNYLCAGRNDCIIDKIRRKNCPACRLQKCLQAGMNLGARKS [C4I] are within error of each other in abundance fitness: -0.99 ± 0.42 for the first, -0.808 ± 0.2 for the second.

SKIWLVCGDEASGCHYGVVTCGSCKVFFKRAVEGQHNYLCAGRNDCIIDKIRRKNCPACRLQKCLQAGMNLGARKS [C4W] and SKINLVCGDEASGCHYGVVTCGSCKVFFKRAVEGQHNYLCAGRNDCIIDKIRRKNCPACRLQKCLQAGMNLGARKS [C4N] are within error of each other in abundance fitness: -1.06 ± 0.27 for the first, -1.04 ± 0.37 for the second.

SKIGLVCGDEASGCHYGVVTCGSCKVFFKRAVEGQHNYLCAGRNDCIIDKIRRKNCPACRLQKCLQAGMNLGARKS [C4G] and SKIQLVCGDEASGCHYGVVTCGSCKVFFKRAVEGQHNYLCAGRNDCIIDKIRRKNCPACRLQKCLQAGMNLGARKS [C4Q] are within error of each other in abundance fitness: -0.842 ± 0.1 for the first, -0.812 ± 0.19 for the second.

Going from SKITLVCGDEASGCHYGVVTCGSCKVFFKRAVEGQHNYLCAGRNDCIIDKIRRKNCPACRLQKCLQAGMNLGARKS [C4T] to SKIALVCGDEASGCHYGVVTCGSCKVFFKRAVEGQHNYLCAGRNDCIIDKIRRKNCPACRLQKCLQAGMNLGARKS [C4A], the abundance fitness falls from -0.837 ± 0.12 to -1.37 ± 0.35.

SKICAVCGDEASGCHYGVVTCGSCKVFFKRAVEGQHNYLCAGRNDCIIDKIRRKNCPACRLQKCLQAGMNLGARKS [L5A] and SKICEVCGDEASGCHYGVVTCGSCKVFFKRAVEGQHNYLCAGRNDCIIDKIRRKNCPACRLQKCLQAGMNLGARKS [L5E] are within error of each other in abundance fitness: -0.05 ± 0.041 for the first, -0.071 ± 0.089 for the second.

SKICIVCGDEASGCHYGVVTCGSCKVFFKRAVEGQHNYLCAGRNDCIIDKIRRKNCPACRLQKCLQAGMNLGARKS [L5I] and SKICFVCGDEASGCHYGVVTCGSCKVFFKRAVEGQHNYLCAGRNDCIIDKIRRKNCPACRLQKCLQAGMNLGARKS [L5F] are within error of each other in abundance fitness: -0.089 ± 0.08 for the first, -0.027 ± 0.075 for the second.

Compared with SKICCVCGDEASGCHYGVVTCGSCKVFFKRAVEGQHNYLCAGRNDCIIDKIRRKNCPACRLQKCLQAGMNLGARKS [L5C], SKICHVCGDEASGCHYGVVTCGSCKVFFKRAVEGQHNYLCAGRNDCIIDKIRRKNCPACRLQKCLQAGMNLGARKS [L5H] is lower in abundance fitness: -0.069 ± 0.057 for the first, -0.239 ± 0.07 for the second.

First: SKICKVCGDEASGCHYGVVTCGSCKVFFKRAVEGQHNYLCAGRNDCIIDKIRRKNCPACRLQKCLQAGMNLGARKS [L5K]
Second: SKICDVCGDEASGCHYGVVTCGSCKVFFKRAVEGQHNYLCAGRNDCIIDKIRRKNCPACRLQKCLQAGMNLGARKS [L5D]
The abundance fitness of the first is higher: 0.057 ± 0.067 for the first, -0.168 ± 0.082 for the second.
